Source: article PMC11067741, “Crystal structure of human peptidylarginine deiminase type VI (PAD6) provides insights into its inactivity” (IUCrJ, 2024)

Target: the molecule itself
Experiment: SEC; analytical SEC on Superdex 200 increase 5/150GL, 20 mM Tris-HCl pH 7.5, 200 mM NaCl, 1 mM TCEP; PAD6 at 1 mg/ml, 0.3 ml/min; calibrated with protein standards

B1: recombinant human peptidylarginine deiminase type VI (PAD6) V2-P694 S10E S446E (enzyme, UniProt Q6TGC4 2-694, looked up)
chain: VSVEGRAMEFQSIIHLSLDSPVHAVCVLGTEICLDLSGCAPQKCQCFTIHGSGRVLIDVANTVISEKEDATIWWPLSDPTYATVKMTSPSPSVDADKVSVTYYGPNEDAPVGTAVLYLTGIEVSLEVDIYRNGQVEMSSDKQAKKKWIWGPSGWGAILLVNCNPADVGQQLEDKKTKKVIFSEEITNLSQMTLNVQGPSCILKKYRLVLHTSKEESKKARVYWPQKDNSSTFELVLGPDQHAYTLALLGNHLKETFYVEAIAFPSAEFSGLISYSVSLVEESQDPSIPETVLYKDTVVFRVAPCVFIPCTQVPLEVYLCRELQLQGFVDTVTKLSEKSNSQVASVYEDPNRLGRWLQDEMAFCYTQAPHKTTSLILDTPQAADLDEFPMKYSLSPGIGYMIQDTEDHKVASMDSIGNLMVSPPVKVQGKEYPLGRVLIGSSFYPEAEGRAMSKTLRDFLYAQQVQAPVELYSDWLMTGHVDEFMCFIPTDDKNEGKKGFLLLLASPSACYKLFREKQKEGYGDALLFDELRADQLLSNGREAKTIDQLLADESLKKQNEYVEKCIHLNRDILKTELGLVEQDIIEIPQLFCLEKLTNIPSDQQPKRSFARPYFPDLLRMIVMGKNLGIPKPFGPQIKGTCCLEEKICCLLEPLGFKCTFINDFDCYLTEVGDICACANIRRVPFAFKWWKMVP
notes: human peptidylarginine deiminase type VI (PAD6), residues V2-P694, called a full-length construct, with the phosphomimetic mutations S10E and S446E; also called phosphomimetic PAD6; human PAD6 phosphomimic mutant; source: HEK cells, transient transfection, purified (glutathione Sepharose, TEV cleavage, reverse HisTrap, Superdex 200); not shown: His6, N-terminal, cleaved; GST, N-terminal, cleaved
stoichiometry N: 2
